To fix the notation:
B1: GLS3000 N28T one-arm antibody (antibody, human IgG1, kappa, L234A L235A, N297A, name in Kabat numbering)
heavy: QVQLVESGGGVVQPGRSLRLSCAASGFTFSNAWMHWVRQAPGKGLEWVAQIKAKSNNYATYYAESVKGRFTISRDDSKNSLYLQMNSLKTEDTAVYYCRYVHYGAYYGVDAWGQGTTVTVSSASTKGPSVFPLAPSSKSTSGGTAALGCLVKDYFPEPVTVSWNSGALTSGVHTFPAVLQSSGLYSLSSVVTVPSSSLGTQTYICNVNHKPSNTKVDKKVEPKSCDKTHTCPPCPAPEAAGGPSVFLFPPKPKDTLMISRTPEVTCVVVDVSHEDPEVKFNWYVDGVEVHNAKTKPREEQYASTYRVVSVLTVLHQDWLNGKEYKCKVSNKALPAPIEKTISKAKGQPREPQVYTLPPSRCELTKNQVSLSCAVKGFYPSDIAVEWESNGQPENNYKTTPPVLDSDGSFFLVSKLTVDKSRWQQGNVFSCSVMHEALHNHYTQKSLSLSPDYKDDDDK
chain: EPKSSDKTHTCPPCPAPELLGGPSVFLFPPKPKDTLMISRTPEVTCVVVDVSHEDPEVKFNWYVDGVEVHNAKTKPREEQYNSTYRVVSVLTVLHQDWLNGKEYKCKVSNKALPAPIEKTISKAKGQPREPQVCTLPPSRDELTKNQVSLWCLVKGFYPSDIAVEWESNGQPENNYKTTPPVLDSDGSFFLYSKLTVDKSRWQQGNVFSCSVMHEALHNRYTQKSLSLSP
light: DIVMTQSPLSLPVTPGEPASISCRSSQSLVHSTRNTYLHWYQQKPGQAPRLLIYKVSNRFSGVPDRFSGSGSGTDFTLKISRVEAEDVGVYYCGQGTQVPYTFGQGTKLEIKRTVAAPSVFIFPPSDEQLKSGTASVVCLLNNFYPREAKVQWKVDNALQSGNSQESVTEQDSKDSTYSLSSTLTLSKADYEKHKVYACEVTHQGLSSPVTKSFNRGEC
B2: GLS3000 N28V one-arm antibody (antibody, human IgG1, kappa, L234A L235A, N297A, name in Kabat numbering)
heavy: QVQLVESGGGVVQPGRSLRLSCAASGFTFSNAWMHWVRQAPGKGLEWVAQIKAKSNNYATYYAESVKGRFTISRDDSKNSLYLQMNSLKTEDTAVYYCRYVHYGAYYGVDAWGQGTTVTVSSASTKGPSVFPLAPSSKSTSGGTAALGCLVKDYFPEPVTVSWNSGALTSGVHTFPAVLQSSGLYSLSSVVTVPSSSLGTQTYICNVNHKPSNTKVDKKVEPKSCDKTHTCPPCPAPEAAGGPSVFLFPPKPKDTLMISRTPEVTCVVVDVSHEDPEVKFNWYVDGVEVHNAKTKPREEQYASTYRVVSVLTVLHQDWLNGKEYKCKVSNKALPAPIEKTISKAKGQPREPQVYTLPPSRCELTKNQVSLSCAVKGFYPSDIAVEWESNGQPENNYKTTPPVLDSDGSFFLVSKLTVDKSRWQQGNVFSCSVMHEALHNHYTQKSLSLSPDYKDDDDK
chain: EPKSSDKTHTCPPCPAPELLGGPSVFLFPPKPKDTLMISRTPEVTCVVVDVSHEDPEVKFNWYVDGVEVHNAKTKPREEQYNSTYRVVSVLTVLHQDWLNGKEYKCKVSNKALPAPIEKTISKAKGQPREPQVCTLPPSRDELTKNQVSLWCLVKGFYPSDIAVEWESNGQPENNYKTTPPVLDSDGSFFLYSKLTVDKSRWQQGNVFSCSVMHEALHNRYTQKSLSLSP
light: DIVMTQSPLSLPVTPGEPASISCRSSQSLVHSVRNTYLHWYQQKPGQAPRLLIYKVSNRFSGVPDRFSGSGSGTDFTLKISRVEAEDVGVYYCGQGTQVPYTFGQGTKLEIKRTVAAPSVFIFPPSDEQLKSGTASVVCLLNNFYPREAKVQWKVDNALQSGNSQESVTEQDSKDSTYSLSSTLTLSKADYEKHKVYACEVTHQGLSSPVTKSFNRGEC
B3: GLS3000 N28Y one-arm antibody (antibody, human IgG1, kappa, L234A L235A, N297A, name in Kabat numbering)
heavy: QVQLVESGGGVVQPGRSLRLSCAASGFTFSNAWMHWVRQAPGKGLEWVAQIKAKSNNYATYYAESVKGRFTISRDDSKNSLYLQMNSLKTEDTAVYYCRYVHYGAYYGVDAWGQGTTVTVSSASTKGPSVFPLAPSSKSTSGGTAALGCLVKDYFPEPVTVSWNSGALTSGVHTFPAVLQSSGLYSLSSVVTVPSSSLGTQTYICNVNHKPSNTKVDKKVEPKSCDKTHTCPPCPAPEAAGGPSVFLFPPKPKDTLMISRTPEVTCVVVDVSHEDPEVKFNWYVDGVEVHNAKTKPREEQYASTYRVVSVLTVLHQDWLNGKEYKCKVSNKALPAPIEKTISKAKGQPREPQVYTLPPSRCELTKNQVSLSCAVKGFYPSDIAVEWESNGQPENNYKTTPPVLDSDGSFFLVSKLTVDKSRWQQGNVFSCSVMHEALHNHYTQKSLSLSPDYKDDDDK
chain: EPKSSDKTHTCPPCPAPELLGGPSVFLFPPKPKDTLMISRTPEVTCVVVDVSHEDPEVKFNWYVDGVEVHNAKTKPREEQYNSTYRVVSVLTVLHQDWLNGKEYKCKVSNKALPAPIEKTISKAKGQPREPQVCTLPPSRDELTKNQVSLWCLVKGFYPSDIAVEWESNGQPENNYKTTPPVLDSDGSFFLYSKLTVDKSRWQQGNVFSCSVMHEALHNRYTQKSLSLSP
light: DIVMTQSPLSLPVTPGEPASISCRSSQSLVHSYRNTYLHWYQQKPGQAPRLLIYKVSNRFSGVPDRFSGSGSGTDFTLKISRVEAEDVGVYYCGQGTQVPYTFGQGTKLEIKRTVAAPSVFIFPPSDEQLKSGTASVVCLLNNFYPREAKVQWKVDNALQSGNSQESVTEQDSKDSTYSLSSTLTLSKADYEKHKVYACEVTHQGLSSPVTKSFNRGEC
B4: GLS3000 N28W one-arm antibody (antibody, human IgG1, kappa, L234A L235A, N297A, name in Kabat numbering)
heavy: QVQLVESGGGVVQPGRSLRLSCAASGFTFSNAWMHWVRQAPGKGLEWVAQIKAKSNNYATYYAESVKGRFTISRDDSKNSLYLQMNSLKTEDTAVYYCRYVHYGAYYGVDAWGQGTTVTVSSASTKGPSVFPLAPSSKSTSGGTAALGCLVKDYFPEPVTVSWNSGALTSGVHTFPAVLQSSGLYSLSSVVTVPSSSLGTQTYICNVNHKPSNTKVDKKVEPKSCDKTHTCPPCPAPEAAGGPSVFLFPPKPKDTLMISRTPEVTCVVVDVSHEDPEVKFNWYVDGVEVHNAKTKPREEQYASTYRVVSVLTVLHQDWLNGKEYKCKVSNKALPAPIEKTISKAKGQPREPQVYTLPPSRCELTKNQVSLSCAVKGFYPSDIAVEWESNGQPENNYKTTPPVLDSDGSFFLVSKLTVDKSRWQQGNVFSCSVMHEALHNHYTQKSLSLSPDYKDDDDK
chain: EPKSSDKTHTCPPCPAPELLGGPSVFLFPPKPKDTLMISRTPEVTCVVVDVSHEDPEVKFNWYVDGVEVHNAKTKPREEQYNSTYRVVSVLTVLHQDWLNGKEYKCKVSNKALPAPIEKTISKAKGQPREPQVCTLPPSRDELTKNQVSLWCLVKGFYPSDIAVEWESNGQPENNYKTTPPVLDSDGSFFLYSKLTVDKSRWQQGNVFSCSVMHEALHNRYTQKSLSLSP
light: DIVMTQSPLSLPVTPGEPASISCRSSQSLVHSWRNTYLHWYQQKPGQAPRLLIYKVSNRFSGVPDRFSGSGSGTDFTLKISRVEAEDVGVYYCGQGTQVPYTFGQGTKLEIKRTVAAPSVFIFPPSDEQLKSGTASVVCLLNNFYPREAKVQWKVDNALQSGNSQESVTEQDSKDSTYSLSSTLTLSKADYEKHKVYACEVTHQGLSSPVTKSFNRGEC
B5: GLS3000 N30D one-arm antibody (antibody, human IgG1, kappa, L234A L235A, N297A, name in Kabat numbering)
heavy: QVQLVESGGGVVQPGRSLRLSCAASGFTFSNAWMHWVRQAPGKGLEWVAQIKAKSNNYATYYAESVKGRFTISRDDSKNSLYLQMNSLKTEDTAVYYCRYVHYGAYYGVDAWGQGTTVTVSSASTKGPSVFPLAPSSKSTSGGTAALGCLVKDYFPEPVTVSWNSGALTSGVHTFPAVLQSSGLYSLSSVVTVPSSSLGTQTYICNVNHKPSNTKVDKKVEPKSCDKTHTCPPCPAPEAAGGPSVFLFPPKPKDTLMISRTPEVTCVVVDVSHEDPEVKFNWYVDGVEVHNAKTKPREEQYASTYRVVSVLTVLHQDWLNGKEYKCKVSNKALPAPIEKTISKAKGQPREPQVYTLPPSRCELTKNQVSLSCAVKGFYPSDIAVEWESNGQPENNYKTTPPVLDSDGSFFLVSKLTVDKSRWQQGNVFSCSVMHEALHNHYTQKSLSLSPDYKDDDDK
chain: EPKSSDKTHTCPPCPAPELLGGPSVFLFPPKPKDTLMISRTPEVTCVVVDVSHEDPEVKFNWYVDGVEVHNAKTKPREEQYNSTYRVVSVLTVLHQDWLNGKEYKCKVSNKALPAPIEKTISKAKGQPREPQVCTLPPSRDELTKNQVSLWCLVKGFYPSDIAVEWESNGQPENNYKTTPPVLDSDGSFFLYSKLTVDKSRWQQGNVFSCSVMHEALHNRYTQKSLSLSP
light: DIVMTQSPLSLPVTPGEPASISCRSSQSLVHSNRDTYLHWYQQKPGQAPRLLIYKVSNRFSGVPDRFSGSGSGTDFTLKISRVEAEDVGVYYCGQGTQVPYTFGQGTKLEIKRTVAAPSVFIFPPSDEQLKSGTASVVCLLNNFYPREAKVQWKVDNALQSGNSQESVTEQDSKDSTYSLSSTLTLSKADYEKHKVYACEVTHQGLSSPVTKSFNRGEC
B6: GLS3000 N30A one-arm antibody (antibody, human IgG1, kappa, L234A L235A, N297A, name in Kabat numbering)
heavy: QVQLVESGGGVVQPGRSLRLSCAASGFTFSNAWMHWVRQAPGKGLEWVAQIKAKSNNYATYYAESVKGRFTISRDDSKNSLYLQMNSLKTEDTAVYYCRYVHYGAYYGVDAWGQGTTVTVSSASTKGPSVFPLAPSSKSTSGGTAALGCLVKDYFPEPVTVSWNSGALTSGVHTFPAVLQSSGLYSLSSVVTVPSSSLGTQTYICNVNHKPSNTKVDKKVEPKSCDKTHTCPPCPAPEAAGGPSVFLFPPKPKDTLMISRTPEVTCVVVDVSHEDPEVKFNWYVDGVEVHNAKTKPREEQYASTYRVVSVLTVLHQDWLNGKEYKCKVSNKALPAPIEKTISKAKGQPREPQVYTLPPSRCELTKNQVSLSCAVKGFYPSDIAVEWESNGQPENNYKTTPPVLDSDGSFFLVSKLTVDKSRWQQGNVFSCSVMHEALHNHYTQKSLSLSPDYKDDDDK
chain: EPKSSDKTHTCPPCPAPELLGGPSVFLFPPKPKDTLMISRTPEVTCVVVDVSHEDPEVKFNWYVDGVEVHNAKTKPREEQYNSTYRVVSVLTVLHQDWLNGKEYKCKVSNKALPAPIEKTISKAKGQPREPQVCTLPPSRDELTKNQVSLWCLVKGFYPSDIAVEWESNGQPENNYKTTPPVLDSDGSFFLYSKLTVDKSRWQQGNVFSCSVMHEALHNRYTQKSLSLSP
light: DIVMTQSPLSLPVTPGEPASISCRSSQSLVHSNRATYLHWYQQKPGQAPRLLIYKVSNRFSGVPDRFSGSGSGTDFTLKISRVEAEDVGVYYCGQGTQVPYTFGQGTKLEIKRTVAAPSVFIFPPSDEQLKSGTASVVCLLNNFYPREAKVQWKVDNALQSGNSQESVTEQDSKDSTYSLSSTLTLSKADYEKHKVYACEVTHQGLSSPVTKSFNRGEC

The source of these data is patent publication US20260049138A1 (Chugai, published 2026).

The target in this test is T1, CD3ε homodimer protein (human, UniProt P07766 23-126, limits assumed).
T1 construct: also called CD3 (CD3ε)
T1 sequence (P07766 23-126 limits assumed): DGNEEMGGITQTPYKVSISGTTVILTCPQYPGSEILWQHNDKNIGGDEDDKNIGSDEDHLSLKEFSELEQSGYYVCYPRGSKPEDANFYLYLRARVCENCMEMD
The test can be described thus: SPR Biacore T200, CD3ε homodimer on chip.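 Further: Light-chain single-residue variant antibodies injected over amine-coupled CD3ε homodimer on a CM4 chip at 25 °C, bound amount divided by that of the GLS3000-containing antibody.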
In the case of B1, the “ratio of amount bound vs unaltered GLS3000” value (“ratio of amount bound” for short) was 0.45.

As to B2, the “ratio of amount bound” value is 0.36.

As to B3, the “ratio of amount bound” value turned out to be 0.26.

As for B4, the “ratio of amount bound” value was found to be 0.41.

Turning to B5, the “ratio of amount bound” value came out at 0.34.

Turning to B6, the “ratio of amount bound” value came to 0.5.
